The data set can be described thus: soluble on expression in E. coli; label from the status in PepcDB or PDB records.
Regarding “NKSIRMTPSQVAFEIRGTLLPGEVFAICGSCDALGNWNPQNAVALLPENDTGESMLWKATIVLSRGVSVQYRYFKGYFLEPKTIGGPCQVIVHKWETHLQPRSITPLESEIIIDDGQFGIHNGVETLDSGWLTCQTEIRLRLHYSEKPPVSITKKKLKKSRFRVKLTLEGLEEDDDDRVSPTVLHKMSNSLEISLISDNEFKCRHSQPECGYGLQPDRWTEYSIQTMEPDNLELIFDFFEEDLSEHVVQGDALPGHVGTACLLSSTIAESGKSAGILTLPIMSRNSRKTIGKVRVDYIIIKPLPGYSCDMKSSFSKYWKPRIPLDVGHRGAGNSTTTAQLAKVQENTIASLRNAASHGAAFVEFDVHLSKDFVPVVYHDLTCCLTMKKKFDADPVELFEIPVKELTFDQLQLLKLTHVTALKSKDRKESVVQEENSFSENQPFPSLKMVLESLPEDVGFNIEIKWICQQRDGMWDGNLSTYFDMNLFLDIILKTVLENSGKRRIVFSSFDADICTMVRQKQNKYPILFLTQGKSEIYPELMDLRSRTTPIAMSFAQFENLLGINVHTEDLLRNPSYIQEAKAKGLVIFCWGDDTNDPENRRKLKELGVNGLIYDRIYDWMPEQPNIFQVEQLERLKQELPELKSCLCPTVSRFVPSSLCGESDIHVDANGIDNVENA”, the “soluble on expression in E. coli” value was “soluble”.

On to “NLDALREVLECPICMESFTEEQLRPKLLHCGHTICRQCLEKLLASSINGVRCPFCSKITRITSLTQLTDNLTVLK”, for which the “soluble on expression in E. coli” value is reported as “soluble”.

In the case of “NMAGMNDKASMNDKASMTVKINESLPQGNGKALGTVTVTETAYGLLFTPHLTGLAPGIHGFHLHEKPSCAPGMKDGKAVPALAAGGHLDPNKTGVHLGPYNDKGHLGDLPGLVVNADGTATYPVLAPRLKSLSEVKQHALMIHAGGDNYSDHPMPLGGGGARMACGVIE”, the “soluble on expression in E. coli” value is on record as “soluble”.

As for “NNTPVTNKLKAYGDANFNFTNNSIADAEKQVQEAYKGLLNLNEKNASDKLLVEDNTAATVGNLRKLGWVLSSKNGTRNEKSQQVKHADEVLFEGKGGVQVTSTSENGKHTITFALA”, the “soluble on expression in E. coli” value was “soluble”.

With “NQKMIASAFNNALGAIQDGFDATNSALGKIQSVVNANAEALNNLLNQLSLVPRGSGGSGGSGGLNVTLLDLTYEMNRIQDAIKKLNESYINLKE”, the “soluble on expression in E. coli” value is recorded as “soluble”.

Consider “NQLLTQQANEDGLTKLFNRRYIDQKLDSMVAWHGRHHMPMAMILLDVDFFKPFNDNYGHIEGDRCLQAIANQLKATFCRSGEYVGRYGGEEFVVLLSSTDAQTAEREAERIQEAMYFLDYQHEFSSVANRVTVSQGVFVFQPTGKENQADLYATADRALYTSKSLGRNTYTMVNAS”, for which the “soluble on expression in E. coli” value was “not soluble”.

Regarding “NSAAIWGEGDVSALQSDTESGAYIEESSMVAADPLADYLSKPKLEALIASTKKQMLAAAKELDFLEAARLRDEAARLEKKLEQLTA”, the “soluble on expression in E. coli” value is recorded as “not soluble”.

As to “NSDALVSIQTSKLPKTAYTATDFIKTAQYKYNHIVSNTVYELDLFQNAVSYADFAVLELELNLANNRDQQIFDSFINPAVTAYEKLGNSLGLFSNLQLDQYVDDTHYLLGYPLLKREKTSY”, the “soluble on expression in E. coli” value was “not soluble”.

“NSDSECPLSHDGYCLHDGVCMYIEALDKYACNCVVGYIGERCQYRDLKWWELR”: the “soluble on expression in E. coli” value is listed as “soluble”.

Regarding “NSDSMILVTVNPKTKKTTMTSLERDTLTTLSGPKNNEMNGVEAKLNAAYAAGGAQMAIMTVQDLLNITIDNYVQINMQGLIDLVNAVGGITVTNEFDFPISIAENEPEYQATVAPGTHKINGEQALVYARMRYDDPEGDYGRQKRQREVIQKVLKKILA”, the “soluble on expression in E. coli” value is reported as “not soluble”.

For the sequence “NTLGMVMHADGGYLGSKPYCASGQYIKRMSDYCRGCAYKVTESTTDDACPFNALYWHFLMRHSDQLRRNQRMGMIYKNLDRMAEAKQQALWERGEHLLARLDAGEAL”, the “soluble on expression in E. coli” value was “not soluble”.

With “NTLKAGQTQSFNDWFPDDNFASEVAAAFEMQATDTISEEQLATLTSLDCHNSSITDMTGIEKLTGLTKLICTSNNITTLDLSQNTNLTYLACDSNKLTNLDVTPLTKLTYLNCDTNKLTKLDVSQNPLLTYLNCARNTLTEIDVSHNTQLTELDCHLNKKITKLDVTPQTQLTTLDCSFNKITELDVSQNKLLNRLNCDTNNITKLDLNQNIQLTFLDCSSNKLTEIDVTPLTQLTYFDCSVNPLTELDVSTLSKLTTLHCIQTDLLEIDLTHNTQLIYFQAEGCRKIKELDVTHNTQLYLLDCQAAGITELDLSQNPKLVYLYLNNTELTELDVSHNTKLKSLSCVNAHIQDFSSVGKIPALNNNFEAEGQTITMPKETLTNNSLTIAVSPDLLDQFGNPMNIEPGDGGVYDQATNTITWENLSTDNPAVTYTFTSENGAIVGTVTTPFEAPQPIK”, the “soluble on expression in E. coli” value is given as “soluble”.

In the case of “NTWKIFVGNVSAACTSQELRSLFERRGRVIECDVVKDYAFVHMEKEADAKAAIAQLNGKEVKGKRINVELSTKGQKK”, the “soluble on expression in E. coli” value is on record as “soluble”.

Turning to “NVFMRKKDNTIDYRYFIEPNIMTSNIDDLLLEKPVAFQLEQFQKELIDSNVNPQLVQLVVDDATI”, the “soluble on expression in E. coli” value is listed as “not soluble”.

As to “NVQHQLAQFQQLQQQAQAISVQKQTVEMQINETQKALEELSRAADDAEVYKSSGNILIRVAKDELTEELQEKLETLQLREKTIERQEERVMKKLQEMQVNIQEAMKGAG”, the “soluble on expression in E. coli” value is listed as “soluble”.

“PCFALTSPEAGSDAGSIPDYGVVCKGEWEGKEVLGMRLTWNKRYITLAPVATVLGLAFKLRDPEGLLGDKEDLGITCALIPTDVKGVEIGNRHFPLNVPFQNGPTRGKDIFVPIDFIIGG”: the “soluble on expression in E. coli” value is reported as “not soluble”.

Consider “PDPNRFDRDRLFNAVSRGVPEDLAGLPEYLSKTSKYLTDSEYTEGSTGKTCLMKAVLNLKDGVNACILPLLQIDRDSGNPQPLVNAQCTDDYYRGHSALHIAIEKRSLQCVKLLVENGANVHARACGRFFQKGQGTCFYFGELPLSLAACTKQWDVVSYLLENPHQPASLQATDSQGNTVLHALVMISDNSAENIALVTSMYDGLLQAGARLCPTVQLEDIRNLQDLTPLKLAAKEGKIEIFRHILQREFS”, for which the “soluble on expression in E. coli” value is on record as “soluble”.

As for “PDVSALDEVVVEAYGSKTRKITTTGAVTSVDVATLQTPATSLANMLGGRVAGIISTQGSGEPGKNISDFWIRGIGTFGANASALVLIDGLEGSLNDVDPADIESFSVLKDASATAMYGVRGANGVVLVTTKRGKQEK”, the “soluble on expression in E. coli” value was “not soluble”.

Take “PEDPSDLLQHVKFQSSNFENILTWDSGPEGTPDTVYSIEYKTYGERDWVAKKGCQRITRKSCNLTVETGNLTELYYARVTAVSAGGRSATKMTDRFSSLQHTTLKPPDVTCISKVRSIQMIVHPTPTPIRAGDGHRLTLEDIFHDLFYHLELQVNRTYQMHLGGKQREYEFFGLTPDTEFLGTIMILVPTWAKESAPYMCRVKTLPDRTWT”: the “soluble on expression in E. coli” value is given as “soluble”.

Consider “PEGSRDILFEECTIKNNIENILRNSYINVGYEEVRSPTLEFYDVYNLENQPISQEKMYKLFDNTGRILVLRPDMTTPIARICATKLKNRVYPLKLSYTGNIYRMNKALNGKISEITQSGIEILGFSSLKADAEVIITAIKAILKTGLKNFKIEIGQVEFFKSIISDTALKEQDTEKLRNFIENKNFSKVEEFILRNSDLIGETSSKVLMNLPNLFGGKEVIEKAEQLTSNKQAIEALKKVRDLYDIVKRAGFGEYILIDLGMVQHINYYTGLIFRGYAHGIGDDLLSGGRYDKLLGQFGYDIPATGLAINVDNLVAALDDCVRENL”, for which the “soluble on expression in E. coli” value was “not soluble”.

Turning to PEKVTVVPKFGDWDENNPSSADGYTHIFNKVREER, the “soluble on expression in E. coli” value was “soluble”.

Consider “PFEPKIVAFVCTYCTYAGADLAGTSRLNYAPNVRIVRLPCTGRISPMFILKALQKGADSVLVSGCHPGDCHFTAGNYHARRRWTVFRALLSFTGIPEERIRFSWISAAEGAKFAELINEITDDTRKLG”, for which the “soluble on expression in E. coli” value is recorded as “not soluble”.

Take “PFKESQARGLLQDNMANSYNGGDFEDGLLNLSKEVFPTDKYLYQDGQFLDKKTINAYLNPKYTKREIDKMSEKDKKDKKANENLGLNPSHEGETNPEKIAEKSPAYLSNILEQDFYGGGDTKGKNIKGMTIGLAMNSVYYYKKEKDGPTFSKKLDDSEVKKQGKQMASEILSRLRENDDLKDIPIHFAIYKQSSEDSITPGEFITQATAEKSQTKLNEWHNINEKSALLPSSTAADYDENLNNNFKQFNDNLQSYFSNFTQAVGKVKFVDKKPQRLVVDLPIDYYGQAETIGITQYVTEQANKYFDKIDNYEIRIKDGNQPRALISKTKDDKEPQVHIYSN”: the “soluble on expression in E. coli” value is “soluble”.

As to “PISKMVTAHFVLIHTICHGAWIWHKLKPALERAGHKVTALDMAASGIDPRQIEQINSFDEYSEPLLTFLEKLPQGEKVIIVGEACAGLNIAIAADRYVDKIAAGVFHNSLLPDTVHSPSYTVEKLLESFPDWRDTEYFTFTNITGETITTMKLGFVLLRENLFTKCTDGEYELAKMVMRKGSLFQNVLAQRPKFTEKGYGSIKKVYIWTDQDKIFLPDFQRWQIANYKPDKVYQVQGGDHKLQLTKTEEVAHILQEVADAYA”, the “soluble on expression in E. coli” value is “soluble”.

In the case of “PKKEVVRIHASSGTTGKPTVVGYTKKDLKTWAELISRVVTAAGVTDEDTAQVAFGYGLFTGGFGLHYGLENVGASVIPMSSGNTEKQIMLMKDFETTVLICTPSYALYISEVAQKMGIDPKKDLKLKIGLFGGEACSESARTEIESKWGILATQNYGMSELMGPGVSGECEYQCGMHIS”, the “soluble on expression in E. coli” value was “not soluble”.

For “PKRSDARLPQVAAFSYVEDLLQAGVHVHLYTNGFLHSKLIMVDSQVASIGSTNMDFRSLENNFEFNGIIYDEPTVHRLEAIFFEDLLQSEPLDLKRWRKRSRIKKFSESFVRLFSPLL”, the “soluble on expression in E. coli” value was “not soluble”.

For “PLESCVRLHSSSGTTGNPTVMLYTQNDLDNWSKLMARCMSLSGANRHDIFQNIMGYGLFTGGIGFHYGAERLGMLTIPIGPGNSKRQGWFMKHLGVSVVHILPSYAFRLYSHLKEEGVDPKELPLRIAFIGAEPHSEAMRREIERLYGIKAFNSFGLSEMNGPGVAFECQEQSGMHLW”, the “soluble on expression in E. coli” value is recorded as “not soluble”.

“PLGSQYFLKVLIPSYAAGSIIGKGGQTIVQLQKETGATIKLSKSKDFYPGTTERVCLIQGTIEALNAVHGFIAEKIREMPQNVAKTEPVSILQPQTTVNPDRANQVKIIVPNSTAGLIIGKGGATVKAIMEQSGAWVQLSQKPDGINLQNRVVTVSGEPEQNRKAVELIIQKIQEDPQ”: the “soluble on expression in E. coli” value is “soluble”.

On to “PLIAVFIGSILFDYRLAQETADTAYDHSLNNAALDIAAYIQTVGLSPKLRLTPEAEAMLRHDAVDKIFFAVRDSNKQLLIGDAQLPAYPGAIHKRPVFIDDVYQGEKIRATTQLIMVDANEITITVAETMREREHASNRIL”, for which the “soluble on expression in E. coli” value is “not soluble”.

As for “PLLIKNGEIITADSRYKADIYAEGETITRIGQNLEAPPGTEVIDATGKYVFPGFIDPHVHIYLPFMATFAKDTHETGSKAALMGGTTTYIEMCCPSRNDDALEGYQLWKSKAEGNSYCDYTFHMAVSKFDEKTEGQLREIVADGISSFKIFLSYKNFFGVDDGEMYQTLRLAKELGVIVTAHCENAELVGRLQQKLLSEGKTGPEWHEPSRPEAVEAEGTARFATFLETTGATGYVVHLSCKPALDAAMAAKARGVPIYIESVIPHFLLDKTYAERGGVEAMKYIMSPPLRDKRNQKVLWDALAQGFIDTVGTDHCPFDTEQKLLGKEAFTAIPNGIPAIEDRVNLLYTYGVSRGRLDIHRFVDAASTKAAKLFGLFPRKGTIAVGSDADLVVYDPQYRGTISVKTQHVNNDYNGFEGFEIDGRPSVVTVRGKVAVRDGQFVGEKGWGKLLRREPMYF”, the “soluble on expression in E. coli” value is recorded as “soluble”.

The values are drawn from the DeepSol protein solubility set.
